Measurements from publication doi:10.1101/756874 (2019).
No end group written: not given here. *: point of attachment. TAMRA = 5-carboxytetramethylrhodamine, CN(C)c1ccc2c(-c3ccc(C(=O)*)cc3C(=O)[O-])c3ccc(=[N+](C)C)cc-3oc2c1

B1: MCL-1 (UniProt:Q07820, residues 168–327, C286S) (domain or fragment)
chain: GSEEEEDELYRQSLEIISRYLREQATGAKDTKPMGRSGATSRKALETLRRVGDGVQRNHETAFQGMLRKLDIKNEDDVKSLSRVMIHVFSDGVTNWGRIVTLISFGAFVAKHLKTINQESSIEPLAESITDVLVRTKRDWLVKQRGWDGFVEFFHVEDLEGG
B2: BAK (UniProt:Q16611, residues 16–185, C166S) (domain or fragment)
chain: EPALPSASEEQVAQDTEEVFRSYVFYRHQQEQEAEGVAAPADPEMVTLPLQPSSTMGQVGRQLAIIGDDINRRYDSEFQTMLQHLQPTAENAYEYFTKIATSLFESGINWGRVVALLGFGYRLALHVYQHGLTGFLGQVTRFVVDFMLHHSIARWIAQRGGWVAALNLGN

Experiments:
Assay in all cases: without detergent
[1] = target: B2
MCL-1BH3 = target: MCL-1BH3
BAXBH3 = target: BAXBH3
[2] = target: B2; remark: listed apart in the source
[3] = target: B1
[4] = target: B1; remark: listed apart in the source

Row | Kd [1] | Kd (MCL-1BH3) | Kd (BAXBH3) | koff [2] | Binder | other results
1 | 1000 µM |  |  |  | {TAMRA}-ALQPSSTMGQVGRQLAIIGDDINRRYDSEFQTMLQ [BAKBH3, TAMRA-labelled 35-residue peptide (UniProt:Q16611, residues 64–98, P64A)] | 
2 |  | 0.182 µM | 0.071 µM |  | B1 | koff (MCL-1BH3): 0.52 s⁻¹; koff (BAXBH3): 0.613 s⁻¹
3 | 230 µM |  |  | 1400 s⁻¹ | {TAMRA}-SESQEDIIRNIARHLAQVGDSMDRSIPPGLVNGLA [BIDBH3, TAMRA-labelled 35-residue peptide (UniProt:P55957, residues 76–110)] | 
4 | 220 µM |  |  | 230 s⁻¹ | {TAMRA}-RGEEEQWAREIGAQLRRAADDLNAQYERRRQEEQQ [PUMABH3, TAMRA-labelled 35-residue peptide (UniProt: Q9BXH1, residues 127–161, M144A)] | koff [3]: 0.00246 s⁻¹; Kd [4]: 0.000174 µM
5 |  | 5000 µM | 500 µM |  | B2 | 
